# Values quoted from earlier work in US20090317412A1, “Induction of an immune response against streptococcus pneumoniae polyaccharides” (priority 2004, published 2009).
# Target: T1, murine I-A^b molecules (Mus musculus, UniProt P14434+P14483)
# T1 sequence (P14434 24-256): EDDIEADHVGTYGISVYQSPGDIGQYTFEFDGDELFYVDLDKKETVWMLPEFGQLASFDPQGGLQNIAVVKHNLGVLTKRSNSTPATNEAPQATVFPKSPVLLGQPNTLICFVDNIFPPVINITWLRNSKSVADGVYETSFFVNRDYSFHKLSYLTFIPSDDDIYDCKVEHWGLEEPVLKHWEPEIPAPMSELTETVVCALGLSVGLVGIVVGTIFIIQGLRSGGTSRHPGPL
# T1 sequence (P14483 28-265): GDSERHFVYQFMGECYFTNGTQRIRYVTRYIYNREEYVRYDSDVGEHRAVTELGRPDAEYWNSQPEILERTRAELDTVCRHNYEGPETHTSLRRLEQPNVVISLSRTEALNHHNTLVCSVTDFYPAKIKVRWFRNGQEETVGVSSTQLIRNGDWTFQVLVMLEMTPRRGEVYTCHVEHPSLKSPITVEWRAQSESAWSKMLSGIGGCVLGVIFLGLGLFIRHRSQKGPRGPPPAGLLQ
sequence,measurement,value
AKXVAAWTLKAAA [pan DR binding peptide],binding to murine I-A^b molecules,binds
